Experimental data taken from patent publication US20100003195A1 (published 2010).
Blank lines part the entries; values can stand above or below the binder they belong to. Bridge positions count the residues as written; N and C are the ends. Primed or numbered codes have the meaning given here. Ends that are not written are not given here. I, II: the chains in the order shown. * marks the point of attachment. ivDde′ = (4,4-dimethyl-2,6-dioxocyclohex-1-ylidene)-3-methylbutyl protecting group, CC(C)CC(=C1C(=O)CC(C)(C)CC1=O)*

Experiments:
KDR on HUVECs [1] = target: T1, KDR on HUVECs (human, UniProt P35968 20-1356); test: cell-based or functional assay
T1 sequence (P35968 20-1356): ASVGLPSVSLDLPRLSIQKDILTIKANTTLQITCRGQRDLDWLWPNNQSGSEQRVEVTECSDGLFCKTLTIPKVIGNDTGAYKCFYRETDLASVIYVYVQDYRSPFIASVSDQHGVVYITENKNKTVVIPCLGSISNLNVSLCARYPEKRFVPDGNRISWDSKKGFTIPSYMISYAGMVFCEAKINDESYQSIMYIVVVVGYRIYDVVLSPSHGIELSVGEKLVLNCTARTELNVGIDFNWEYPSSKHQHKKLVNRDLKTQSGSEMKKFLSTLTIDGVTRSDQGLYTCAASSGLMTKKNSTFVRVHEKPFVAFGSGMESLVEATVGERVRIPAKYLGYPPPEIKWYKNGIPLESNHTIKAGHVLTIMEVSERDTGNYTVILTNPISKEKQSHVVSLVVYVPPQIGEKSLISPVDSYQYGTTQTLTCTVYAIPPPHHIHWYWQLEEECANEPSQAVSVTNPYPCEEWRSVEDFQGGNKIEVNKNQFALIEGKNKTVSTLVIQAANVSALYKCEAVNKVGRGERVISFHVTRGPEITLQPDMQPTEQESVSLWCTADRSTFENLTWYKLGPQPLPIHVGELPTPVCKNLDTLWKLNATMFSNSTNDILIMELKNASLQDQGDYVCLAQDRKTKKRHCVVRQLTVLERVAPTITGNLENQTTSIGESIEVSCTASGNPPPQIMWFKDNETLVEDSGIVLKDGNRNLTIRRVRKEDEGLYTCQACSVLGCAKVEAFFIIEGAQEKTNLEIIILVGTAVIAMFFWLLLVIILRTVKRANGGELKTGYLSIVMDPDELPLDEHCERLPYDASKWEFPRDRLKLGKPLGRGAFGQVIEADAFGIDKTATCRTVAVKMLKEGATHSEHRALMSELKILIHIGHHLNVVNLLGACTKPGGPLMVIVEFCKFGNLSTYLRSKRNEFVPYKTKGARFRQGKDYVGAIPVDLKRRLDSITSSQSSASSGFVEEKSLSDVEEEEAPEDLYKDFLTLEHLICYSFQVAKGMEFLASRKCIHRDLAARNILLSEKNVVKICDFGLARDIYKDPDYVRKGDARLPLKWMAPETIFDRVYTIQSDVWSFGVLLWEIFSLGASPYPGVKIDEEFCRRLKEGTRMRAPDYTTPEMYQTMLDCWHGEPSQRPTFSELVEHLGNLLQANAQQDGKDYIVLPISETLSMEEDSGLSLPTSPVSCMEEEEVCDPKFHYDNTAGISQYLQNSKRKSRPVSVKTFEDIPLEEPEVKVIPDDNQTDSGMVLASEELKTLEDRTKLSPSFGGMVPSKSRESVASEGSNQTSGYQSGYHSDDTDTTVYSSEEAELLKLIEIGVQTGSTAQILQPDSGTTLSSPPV

[2] = target: T2, KDR on KDR-transfected 293H cells (human, UniProt P35968 20-1356); test: competitor 125I-VEGF (300 pM), KDR-transfected 293H cells, peptide 30 µM
T2 construct: whole, on cells; also called KDR-expressing cells; KDR-transfected cells
T2 sequence (P35968 20-1356): as above

[3] = target: T2, KDR on KDR-transfected 293H cells; test: competitor 125I-VEGF (300 pM), KDR-transfected 293H cells, peptide 0.3 µM
KDR on HUVECs [4] = target: T1, KDR on HUVECs; test: cell-based or functional assay; remark: listed apart in the source
[5] = target: T2, KDR on KDR-transfected 293H cells; test: Tc-labeled dimer on KDR- vs mock-transfected 293H cells
[6] = target: T3, human KDR-Fc chimeric fusion (R&D Systems #357-KD-05) (human, UniProt P35968 20-764); test: BIAcore steady state, KDAV, KDR-Fc at 6000 RU
T3 construct: bought; also called KDR Fc fusion
T3 sequence (P35968 20-764, change not shown): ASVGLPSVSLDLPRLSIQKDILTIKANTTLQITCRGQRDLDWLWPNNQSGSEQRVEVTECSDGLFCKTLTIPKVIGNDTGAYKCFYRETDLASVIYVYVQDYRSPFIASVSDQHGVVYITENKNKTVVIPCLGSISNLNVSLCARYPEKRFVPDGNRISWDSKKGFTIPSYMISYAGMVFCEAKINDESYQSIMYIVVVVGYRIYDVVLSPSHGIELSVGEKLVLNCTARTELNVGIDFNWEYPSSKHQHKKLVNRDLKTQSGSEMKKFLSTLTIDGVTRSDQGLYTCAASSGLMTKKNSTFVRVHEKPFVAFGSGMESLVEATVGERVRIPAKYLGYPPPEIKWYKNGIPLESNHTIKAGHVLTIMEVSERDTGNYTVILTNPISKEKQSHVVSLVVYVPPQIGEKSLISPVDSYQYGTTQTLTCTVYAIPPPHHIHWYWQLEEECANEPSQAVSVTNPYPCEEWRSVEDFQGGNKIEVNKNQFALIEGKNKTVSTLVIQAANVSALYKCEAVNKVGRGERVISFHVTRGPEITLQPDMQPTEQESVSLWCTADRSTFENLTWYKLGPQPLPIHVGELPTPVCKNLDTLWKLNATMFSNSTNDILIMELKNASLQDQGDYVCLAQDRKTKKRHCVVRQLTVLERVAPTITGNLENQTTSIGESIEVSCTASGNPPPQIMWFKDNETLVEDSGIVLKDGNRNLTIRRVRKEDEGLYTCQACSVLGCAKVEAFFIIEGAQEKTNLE
Description: (§1) All samples were injected in duplicate. […] Following a 10 minute dissociation, any remaining peptide was stripped from the KDR surface with a quickinject of 50 mM NaOH+1 M NaCl for 12 s at 75 μL/min. Sensorgrams were analyzed using BIAevaluation software 3.1 and a hyperbolic double rectangular regression equation in SigmaPlot 6.0.

[7] = target: T3, human KDR-Fc chimeric fusion (R&D …); test: BIAcore steady state, KDAV, KDR-Fc at 1600 RU
Description: as §1

[8] = target: T3, human KDR-Fc chimeric fusion (R&D …); test: BIAcore steady state, KD1, KDR-Fc at 6000 RU
Description: as §1

[9] = target: T3, human KDR-Fc chimeric fusion (R&D …); test: BIAcore steady state, KD1, KDR-Fc at 1600 RU
Description: as §1

[10] = target: T3, human KDR-Fc chimeric fusion (R&D …); test: BIAcore steady state, KD1, KDR-Fc at 3000 RU
Description: as §1

[11] = target: T3, human KDR-Fc chimeric fusion (R&D …); test: BIAcore steady state, KDAV, KDR-Fc at 3000 RU
Description: as §1

[12] = target: T3, human KDR-Fc chimeric fusion (R&D …); test: BIAcore steady state at the higher immobilization densities
Description: as §1

[13] = target: T2, KDR on KDR-transfected 293H cells; test: radioligand binding, 1-4 µCi/mL, KDR- vs mock-transfected 293H cells

Binder: Ac-GDSRVCWEDSWGGEVCFRYDPGGGK-NH2 (disulfide 6-16 (inferred); also: fluorescein on C-terminal Lys in FP only) [SEQ ID NO:294]
VEGF-induced KDR phosphorylation, HUVEC immunoblot (KDR on HUVECs [1]): ≥ 50 % inhibition at 10 µM | % inhibition of 125I-labeled VEGF binding [2]: 96.3% | % inhibition of 125I-labeled VEGF binding [3]: 52.3%

B2: Tc-labeled D18 (scrambled derivative of D10) (peptide)
peptide 1: Ac-APGTWCDYDWEYCWLGTFGGGK-NH2
peptide 2: Ac-GVDFRCEWSDWGEVGCRSPDYGGGK-NH2
modifications: disulfide I:6-I:13, II:6-II:16 (inferred); not fully specified (some residues, bridges); also: 99mTc chelated by PnAO6, J not defined
notes: control; also called dimer 18
binding result [5]: no binding (tested: up to 10 µCi/mL)

B3: dimer 6 (D6) (peptide)
peptide 1: GDSRVCWEDSWGGEVCFRYDPGGGK
peptide 2: AGPTWCEDDWYYCWLFGTGGGK
modifications: disulfide I:6-I:16, II:6-II:13 (inferred); also: heterodimer made with glutaric acid bis-NHS ester
notes: heterodimer made with glutaric acid bis-NHS ester
IC50, VEGF-induced HUVEC migration (KDR on HUVECs [4]): ~12.5 nM | Kd [6]: 0.662 nM | Kd [7]: 1.5 nM | Kd [8]: 17 nM | Kd [9]: 46 nM | Kd [10]: 25.5 nM | Kd [11]: 0.665 nM | Kd [12]: ~0.6 nM

Binder: Ac-GDPDTCTMWGDSGRWYCFPADPGGGK-NH2 (disulfide 6-17 (inferred); also: fluorescein on C-terminal Lys in FP only) [SEQ ID NO:301]
VEGF-induced KDR phosphorylation, HUVEC immunoblot (KDR on HUVECs [1]): ≥ 50 % inhibition at 10 µM

Binder: Ac-AQGDYVYWEIIELTGATDHTPPGGK-NH2 (also: fluorescein on C-terminal Lys in FP only) [SEQ ID NO:307]
VEGF-induced KDR phosphorylation, HUVEC immunoblot (KDR on HUVECs [1]): ≥ 50 % inhibition at 10 µM

Binder: Ac-AGWIECYHPDGICYHFGTGGGK-NH2 (disulfide 6-13 (inferred); also: fluorescein on C-terminal Lys in FP only) [SEQ ID NO:269]
VEGF-induced KDR phosphorylation, HUVEC immunoblot (KDR on HUVECs [1]): ≥ 50 % inhibition at 10 µM

Binder: Ac-AGWLECYAEFGHCYNFGTGGGK-NH2 (disulfide 6-13 (inferred); also: fluorescein on C-terminal Lys in FP only) [SEQ ID NO:267]
VEGF-induced KDR phosphorylation, HUVEC immunoblot (KDR on HUVECs [1]): ≥ 50 % inhibition at 10 µM

Binder: Ac-AGPTWCEDDWYYCWLFGTGGGK-NH2 (cysteine pairing not given here; also: fluorescein on C-terminal Lys in FP and) [SEQ ID NO:277]
% inhibition of 125I-labeled VEGF binding [2]: 104% | IC50, receptor activation assay (KDR on HUVECs [4]): 100 nM | % inhibition of 125I-labeled VEGF binding [3]: 81%

Next, values leading:

IC50, VEGF-induced HUVEC migration (KDR on HUVECs [4]): ~250 nM
B1: dimer 17 (D17) (peptide)
peptide 1: AQDWYYDEILGRGGRGGRGGK
peptide 2: VCWEDSWGGEVCFRYDPGGGK
modifications: not fully specified; N-acetyl; C-terminal Lys(JJ-Glut) amide; N-acetyl; J spacer within the chain

VEGF-induced KDR phosphorylation, HUVEC immunoblot (KDR on HUVECs [1]): ≥ 50 % inhibition at 10 µM
Binder: Ac-AQAFPRFGGDDYWIQQYLRYTDGGK-NH2 (also: fluorescein on C-terminal Lys in FP only) [SEQ ID NO:306]

VEGF-induced KDR phosphorylation, HUVEC immunoblot (KDR on HUVECs [1]): ≥ 50 % inhibition at 10 µM
Binder: Ac-GDWWECK(ivDde′)REEYRNTTWCAWADPGGGK-NH2 (disulfide 6-17 (inferred)) [SEQ ID NO:366 having a blocked K]

VEGF-induced KDR phosphorylation, HUVEC immunoblot (KDR on HUVECs [1]): ≥ 50 % inhibition at 10 µM
Binder: Ac-AQEPEGYAYWEVITLYHEEDGDGGK-NH2 (also: fluorescein on C-terminal Lys in FP only) [SEQ ID NO:305]

binding result [13]: binds
B4: 125I-labeled D5 (peptide)
peptide 1: Ac-VCWEDSWGGEVCFRYDPGGGK-NH2
peptide 2: Ac-AGPTWCEDDWYYCWLFGTGGGK-NH2
modifications: disulfide I:2-I:12, II:6-II:13 (inferred); not fully specified (bridges); also: dimer joined by JJ-glutaryl-Lys linker, 125I Bolton-Hunter label, site not given here
notes: also called dimer 5

IC50, VEGF-induced HUVEC migration (KDR on HUVECs [4]): 5 nM
B5: dimer 25 (D25) (peptide)
peptide 1: Ac-AGPTWCEDDWYYCWLFGTGGGK-NH2
peptide 2: Ac-GDSRVCWEDSWGGEVCFRYDPGGGK-NH2
modifications: disulfide I:6-I:13, II:6-II:16 (inferred); not fully specified (bridges); also: dimer joined by JJ-Glut-Lys linker
